Assay results reported in patent publication US20260285997 (published 2026).
Several values for one entry are separate records, joined by “and”; a condition that tells them apart may be missing. Equal entries are not always repeated.

T1: CD206 (human, UniProt P22897)
T1 chain: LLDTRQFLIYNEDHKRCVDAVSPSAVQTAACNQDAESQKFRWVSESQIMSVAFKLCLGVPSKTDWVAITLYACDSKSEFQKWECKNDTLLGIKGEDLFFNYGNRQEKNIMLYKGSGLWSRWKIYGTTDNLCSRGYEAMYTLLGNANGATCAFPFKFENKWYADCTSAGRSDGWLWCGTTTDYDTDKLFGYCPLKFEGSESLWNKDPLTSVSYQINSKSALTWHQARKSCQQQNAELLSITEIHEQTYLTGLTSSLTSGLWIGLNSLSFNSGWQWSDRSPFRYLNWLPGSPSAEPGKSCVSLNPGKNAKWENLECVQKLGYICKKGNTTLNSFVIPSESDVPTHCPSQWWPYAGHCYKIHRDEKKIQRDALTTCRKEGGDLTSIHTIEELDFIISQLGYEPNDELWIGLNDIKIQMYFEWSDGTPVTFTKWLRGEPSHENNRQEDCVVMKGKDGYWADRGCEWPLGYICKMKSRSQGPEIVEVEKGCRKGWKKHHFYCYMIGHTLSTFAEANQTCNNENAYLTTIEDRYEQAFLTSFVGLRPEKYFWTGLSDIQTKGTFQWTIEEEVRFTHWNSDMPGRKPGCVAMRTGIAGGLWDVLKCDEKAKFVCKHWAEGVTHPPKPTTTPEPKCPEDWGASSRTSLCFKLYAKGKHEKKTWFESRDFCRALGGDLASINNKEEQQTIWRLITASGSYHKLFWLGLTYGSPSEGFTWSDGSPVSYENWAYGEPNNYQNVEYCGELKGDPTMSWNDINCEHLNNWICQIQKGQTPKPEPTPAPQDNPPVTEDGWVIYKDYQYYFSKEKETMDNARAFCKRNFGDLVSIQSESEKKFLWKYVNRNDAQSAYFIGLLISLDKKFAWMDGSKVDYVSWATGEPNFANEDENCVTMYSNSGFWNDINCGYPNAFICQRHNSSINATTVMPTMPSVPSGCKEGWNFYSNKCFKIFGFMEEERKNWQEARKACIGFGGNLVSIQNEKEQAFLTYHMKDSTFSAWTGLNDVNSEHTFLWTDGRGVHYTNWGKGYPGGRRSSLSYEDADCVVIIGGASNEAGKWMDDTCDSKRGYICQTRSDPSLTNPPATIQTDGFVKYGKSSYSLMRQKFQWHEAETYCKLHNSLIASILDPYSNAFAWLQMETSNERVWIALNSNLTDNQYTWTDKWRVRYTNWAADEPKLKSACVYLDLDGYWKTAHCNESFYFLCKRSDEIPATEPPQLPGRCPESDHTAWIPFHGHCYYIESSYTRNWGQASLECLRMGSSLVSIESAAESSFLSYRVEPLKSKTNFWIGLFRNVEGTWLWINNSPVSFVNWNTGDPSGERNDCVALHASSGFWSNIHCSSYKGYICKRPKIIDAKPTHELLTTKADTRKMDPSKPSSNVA


Key:
CD206 = molecular target: T1, CD206; test: SPR
CD40 = CD40 (human, UniProt P25942); test: SPR
Sequence of CD40 (P25942 21-193): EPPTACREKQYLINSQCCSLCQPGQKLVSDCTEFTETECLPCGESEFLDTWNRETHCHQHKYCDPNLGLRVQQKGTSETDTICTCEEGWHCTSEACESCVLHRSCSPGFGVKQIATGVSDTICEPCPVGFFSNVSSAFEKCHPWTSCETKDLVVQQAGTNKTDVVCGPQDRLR

Binder	Kd (CD206)	Kd (CD40)
BEAT 2a2 CD206 arm (antibody, V domains shown) VH: EVQLVQSGAEVKKPGESLRISCKGSGDSFTTYWIGWVRQMPGKGLEWMGIIYPGDSDTIYSPSFQGQVTISADKSISTAYLQWSSLKASDTAMYYCTRGDRGVDYWGQGTLVTVSS VL: DIQMTQSPSSLSASVGDRVTITCRASQGISRWLAWYQQKPEKAPKSLIYAASSLQSGVPSRFSGSGSGTDFTLTISGLQPEDFATYYCQQYNSYPRTFGQGTKVEIK	11.8 nM and 9.48 nM	–
BEAT 2a4 CD206 arm (antibody, V domains shown) VH: EVQLVQSGAEVKKPGESLRISCKGSGDSFTTYWIGWVRQMPGKGLEWMGIIYPGDSDTIYSPSFQGQVTISADKSISTAYLQWSSLKASDTAMYYCTRGDRGVDYWGQGTLVTVSS VL: DIQMTQSPSSLSASVGDRVTITCRASQGISRWLAWYQQKPEKAPKSLIYAASSLQSGVPSRFSGSGSGTDFTLTISGLQPEDFATYYCQQYNSYPRTFGQGTKVEIK	10.3 nM and 11.9 nM	–
BEAT 2a5 CD206 arm (antibody, V domains shown) VH: EVQLVQSGAEVKKPGESLRISCKGSGDSFTTYWIGWVRQMPGKGLEWMGIIYPGDSDTIYSPSFQGQVTISADKSISTAYLQWSSLKASDTAMYYCTRGDRGVDYWGQGTLVTVSS VL: DIQMTQSPSSLSASVGDRVTITCRASQGISRWLAWYQQKPEKAPKSLIYAASSLQSGVPSRFSGSGSGTDFTLTISGLQPEDFATYYCQQYNSYPRTFGQGTKVEIK	30.1 nM and 32.7 nM	–
BEAT 2a3 CD206 arm (antibody, V domains shown) VH: EVQLVQSGAEVKKPGESLRISCKGSGDSFTTYWIGWVRQMPGKGLEWMGIIYPGDSDTIYSPSFQGQVTISADKSISTAYLQWSSLKASDTAMYYCTRGDRGVDYWGQGTLVTVSS VL: DIQMTQSPSSLSASVGDRVTITCRASQGISRWLAWYQQKPEKAPKSLIYAASSLQSGVPSRFSGSGSGTDFTLTISGLQPEDFATYYCQQYNSYPRTFGQGTKVEIK	22.2 nM and 23.6 nM	–
BEAT 1a1 CD40 arm (antibody, V domains shown) VH: not shown VL: DIQMTQSPSSVSASVGDRVTITCRASQGIYSWLAWYQQKPGKAPNLLIYTASTLQSGVPSRFSGSGSGTDFTLTISSLQPEDFATYYCQQANIFPLTFGGGTKVEIK	–	0.574 nM and 0.572 nM and 0.585 nM
BEAT 1a4 CD40 arm (antibody, V domains shown) VH: not shown VL: DIQMTQSPSSVSASVGDRVTITCRASQGIYSWLAWYQQKPGKAPNLLIYTASTLQSGVPSRFSGSGSGTDFTLTISSLQPEDFATYYCQQANIFPLTFGGGTKVEIK	–	0.444 nM and 0.391 nM and 0.467 nM
BEAT 1a6 CD40 arm (antibody, V domains shown) VH: not shown VL: DIQMTQSPSSVSASVGDRVTITCRASQGIYSWLAWYQQKPGKAPNLLIYTASTLQSGVPSRFSGSGSGTDFTLTISSLQPEDFATYYCQQANIFPLTFGGGTKVEIK	–	0.371 nM and 0.394 nM
BEAT 1a2 CD40 arm (antibody, V domains shown) VH: not shown VL: DIQMTQSPSSVSASVGDRVTITCRASQGIYSWLAWYQQKPGKAPNLLIYTASTLQSGVPSRFSGSGSGTDFTLTISSLQPEDFATYYCQQANIFPLTFGGGTKVEIK	–	0.471 nM and 0.534 nM
BEAT 1a3 CD40 arm (antibody, V domains shown) VH: not shown VL: DIQMTQSPSSVSASVGDRVTITCRASQGIYSWLAWYQQKPGKAPNLLIYTASTLQSGVPSRFSGSGSGTDFTLTISSLQPEDFATYYCQQANIFPLTFGGGTKVEIK	–	0.957 nM and 0.975 nM
BEAT 1a5 CD40 arm (antibody, V domains shown) VH: not shown VL: DIQMTQSPSSVSASVGDRVTITCRASQGIYSWLAWYQQKPGKAPNLLIYTASTLQSGVPSRFSGSGSGTDFTLTISSLQPEDFATYYCQQANIFPLTFGGGTKVEIK	–	0.988 nM and 0.986 nM
BEAT 1b4 CD40 arm (antibody, V domains shown) VH: not shown VL: DIQMTQSPSSVSASVGDRVTITCRASQGIYSWLAWYQQKPGKAPNLLIYTASTLQSGVPSRFSGSGSGTDFTLTISSLQPEDFATYYCQQANIFPLTFGGGTKVEIK	–	0.487 nM and 0.496 nM
BEAT 1b2 CD40 arm (antibody, V domains shown) VH: not shown VL: DIQMTQSPSSVSASVGDRVTITCRASQGIYSWLAWYQQKPGKAPNLLIYTASTLQSGVPSRFSGSGSGTDFTLTISSLQPEDFATYYCQQANIFPLTFGGGTKVEIK	–	0.444 nM and 0.295 nM
BEAT 1b1 CD40 arm (antibody, V domains shown) VH: not shown VL: DIQMTQSPSSVSASVGDRVTITCRASQGIYSWLAWYQQKPGKAPNLLIYTASTLQSGVPSRFSGSGSGTDFTLTISSLQPEDFATYYCQQANIFPLTFGGGTKVEIK	–	0.379 nM and 0.62 nM

The remaining lines, values ahead:

Kd (CD206)	Kd (CD40)	Binder
27.8 nM and 47 nM	–	BEAT 2b1 CD206 arm (antibody, V domains shown) VH: EVQLVQSGAEVKKPGESLRISCKGSGDSFTTYWIGWVRQMPGKGLEWMGIIYPGDSDTIYSPSFQGQVTISADKSISTAYLQWSSLKASDTAMYYCTRGDRGVDYWGQGTLVTVSS VL: DIQMTQSPSSLSASVGDRVTITCRASQGISRWLAWYQQKPEKAPKSLIYAASSLQSGVPSRFSGSGSGTDFTLTISGLQPEDFATYYCQQYNSYPRTFGQGTKVEIK
15.9 nM and 14.3 nM	–	BEAT 2a7 CD206 arm (antibody, V domains shown) VH: EVQLVQSGAEVKKPGESLRISCKGSGDSFTTYWIGWVRQMPGKGLEWMGIIYPGDSDTIYSPSFQGQVTISADKSISTAYLQWSSLKASDTAMYYCTRGDRGVDYWGQGTLVTVSS VL: DIQMTQSPSSLSASVGDRVTITCRASQGISRWLAWYQQKPEKAPKSLIYAASSLQSGVPSRFSGSGSGTDFTLTISGLQPEDFATYYCQQYNSYPRTFGQGTKVEIK
20.1 nM and 21.3 nM	–	BEAT 2b3 CD206 arm (antibody, V domains shown) VH: EVQLVQSGAEVKKPGESLRISCKGSGDSFTTYWIGWVRQMPGKGLEWMGIIYPGDSDTIYSPSFQGQVTISADKSISTAYLQWSSLKASDTAMYYCTRGDRGVDYWGQGTLVTVSS VL: DIQMTQSPSSLSASVGDRVTITCRASQGISRWLAWYQQKPEKAPKSLIYAASSLQSGVPSRFSGSGSGTDFTLTISGLQPEDFATYYCQQYNSYPRTFGQGTKVEIK
15.8 nM and 15.6 nM	–	BEAT 2a8 CD206 arm (antibody, V domains shown) VH: EVQLVQSGAEVKKPGESLRISCKGSGDSFTTYWIGWVRQMPGKGLEWMGIIYPGDSDTIYSPSFQGQVTISADKSISTAYLQWSSLKASDTAMYYCTRGDRGVDYWGQGTLVTVSS VL: DIQMTQSPSSLSASVGDRVTITCRASQGISRWLAWYQQKPEKAPKSLIYAASSLQSGVPSRFSGSGSGTDFTLTISGLQPEDFATYYCQQYNSYPRTFGQGTKVEIK
11.2 nM and 10.3 nM and 10.5 nM and 11.1 nM	–	anti-CD206 IgG1 (antibody, V domains shown) VH: EVQLVQSGAEVKKPGESLRISCKGSGDSFTTYWIGWVRQMPGKGLEWMGIIYPGDSDTIYSPSFQGQVTISADKSISTAYLQWSSLKASDTAMYYCTRGDRGVDYWGQGTLVTVSS VL: DIQMTQSPSSLSASVGDRVTITCRASQGISRWLAWYQQKPEKAPKSLIYAASSLQSGVPSRFSGSGSGTDFTLTISGLQPEDFATYYCQQYNSYPRTFGQGTKVEIK
10.3 nM and 10.4 nM	–	BEAT 2a6 CD206 arm (antibody, V domains shown) VH: EVQLVQSGAEVKKPGESLRISCKGSGDSFTTYWIGWVRQMPGKGLEWMGIIYPGDSDTIYSPSFQGQVTISADKSISTAYLQWSSLKASDTAMYYCTRGDRGVDYWGQGTLVTVSS VL: DIQMTQSPSSLSASVGDRVTITCRASQGISRWLAWYQQKPEKAPKSLIYAASSLQSGVPSRFSGSGSGTDFTLTISGLQPEDFATYYCQQYNSYPRTFGQGTKVEIK
12.7 nM and 13.4 nM	–	BEAT 2b2 CD206 arm (antibody, V domains shown) VH: EVQLVQSGAEVKKPGESLRISCKGSGDSFTTYWIGWVRQMPGKGLEWMGIIYPGDSDTIYSPSFQGQVTISADKSISTAYLQWSSLKASDTAMYYCTRGDRGVDYWGQGTLVTVSS VL: DIQMTQSPSSLSASVGDRVTITCRASQGISRWLAWYQQKPEKAPKSLIYAASSLQSGVPSRFSGSGSGTDFTLTISGLQPEDFATYYCQQYNSYPRTFGQGTKVEIK
14 nM and 12.4 nM	–	BEAT 2b4 CD206 arm (antibody, V domains shown) VH: EVQLVQSGAEVKKPGESLRISCKGSGDSFTTYWIGWVRQMPGKGLEWMGIIYPGDSDTIYSPSFQGQVTISADKSISTAYLQWSSLKASDTAMYYCTRGDRGVDYWGQGTLVTVSS VL: DIQMTQSPSSLSASVGDRVTITCRASQGISRWLAWYQQKPEKAPKSLIYAASSLQSGVPSRFSGSGSGTDFTLTISGLQPEDFATYYCQQYNSYPRTFGQGTKVEIK
–	0.535 nM and 0.7 nM	anti-CD40 IgG2 (antibody, V domains shown) VH: not shown VL: DIQMTQSPSSVSASVGDRVTITCRASQGIYSWLAWYQQKPGKAPNLLIYTASTLQSGVPSRFSGSGSGTDFTLTISSLQPEDFATYYCQQANIFPLTFGGGTKVEIK
